# Data reported in patent US20060024297A1 (published 2006).
# B1: germlined E3 Fab (light chain framework regions germlined to DPK4; heavy chain as parental) (Fab, V domains shown)
# VH: EVQLLESGGGLVQPGGSLRLSCAASGFTFSMYGMVWVRQAPGKGLEWVSVISPSGGNTGYADSVKGRFTISRDNSKNTLYLQVNSLRAEDTAVYYCARAPRGYSYGYYYWGQGTLVTVSS
# VL: DIQMTQSPSSLSASVGDRVTITCRASQGIGHYLAWYQQKPGKVPKLLIYTASTLQSGVPSRFSGSGSGTDFTLTISSLQPEDVATYYCQQFNSYPHTFGQGTRLEIK
# notes: also called germlined Fab E3; E3 germlined
# B2: E3b Fab (germlined heavy chain and germlined light chain of E3) (Fab, V domains shown)
# VH: EVQLLESGGGLVQPGGSLRLSCAASGFTFSMYGMVWVRQAPGKGLEWVSVISPSGGNTGYADSVKGRFTISRDNSKNTLYLQMNSLRAEDTAVYYCARAPRGYSYGYYYWGQGTLVTVSS
# VL: DIQMTQSPSSLSASVGDRVTITCRASQGIGHYLAWYQQKPGKVPKLLIYTASTLQSGVPSRFSGSGSGTDFTLTISSLQPEDVATYYCQQFNSYPHTFGQGTRLEIK
# notes: also called Fab E3b; germlined (E3b)
# B3: E3 Fab (parental, soluble Fab) (Fab, V domains shown)
# VH: EVQLLESGGGLVQPGGSLRLSCAASGFTFSMYGMVWVRQAPGKGLEWVSVISPSGGNTGYADSVKGRFTISRDNSKNTLYLQVNSLRAEDTAVYYCARAPRGYSYGYYYWGQGTLVTVSS
# VL: DIQMTQSPLSLSASVGDRVTITCRASQGIGHYLAWYQQKPGKVPKLLIYTASTLQSGVPSRFSGSGSGTDFTLTINSLQPEDVATYYCQQFNSYPHTFGQGTRLDIK
# notes: also called parental E3 Fab; parental Fab E3
# B4: P-C6 IgG (anti-Tie1 isolate p-C6, human IgG1) (antibody, V domains shown)
# VH: EVQLLESGGGLVQPGGSLRLSCAASGFTFSHYGMTWVRQAPGKGLEWVSVISPSGGQTGYADSVKGRFTISRDNSKNTLYLQMNSLRAEDTAVYYCAGGGYAAFDYWGQGTLVTVSS
# VL: DIQMTQSPATLSLSPGERATLSCRASQSVSSYLAWYQQKPGQAPRLLIYDASNRATGIPARFSGSGSGTDFTLTISSLEPEDFAVYYCQQRSNWPLTFGGG
# notes: the VL entry stops within FR4
# B5: P-D12 IgG (anti-Tie1 isolate p-D12, human IgG1) (antibody, V domains shown)
# VH: EVQLLESGGGLVQPGGSLRLSCAASGFTFSGYGMHWVRQAPGKGLEWVSVISPSGGQTSYADSVKGRFTISRDNSKNTLYLQMNSLRAEDTAVYYCARDRQYYYGSGSLDYWGQGTLVTVSS
# VL: DIQMTQSPSSLSASVGDRVTVTCRASQSISSYLNWYQQKPGKAPKLLIYAASSLQSGVPSRFSGGGSGTDFTLTISSLQPEDFATYFCLQDYKYPWTFGQG
# notes: the VL entry stops within FR4
# B6: P-F3 IgG (anti-Tie1 isolate p-F3, human IgG1) (antibody, V domains shown)
# VH: EVQLLESGGGLVQPGGSLRLSCAASGFTFSMYGMGWVRQAPGKGLEWVSVISPSGGQTAYADSVKGRFTISRDNSKNTLYLQMNSLRAEDTAVYYCARVALLLGHAFDIWGQGTMVTVSS
# VL: DIQMTQSPSTLSASLGDRVTITCRASESISRWLAWYQQKPGKAPKLLMYEASTLESGVPSRFTGTGSGTEFTLTISSLQPDDFATYYCQQRSNWPLTFGGG
# notes: the VL entry stops within FR4
# B7: P-F4 IgG (anti-Tie1 isolate p-F4, human IgG1) (antibody, V domains shown)
# VH: EVQLLESGGGLVQPGGSLRLSCAASGFTFSAYMMSWVRQAPGKGLEWVSSIYPSGGYTYYADSVKGRFTISRDNSKNTLYLQMNSLRAEDTAVYYCARGLRGGPDYWGQGTLVTVSS
# VL: DIQMTQSPSTLSAYVGDSVTITCRASQSVRRSLAWYQQRPGKAPKSLIYKASTLETGVPPRFSGSGSGTEFTLTISSLQPEDSAIYYCQQYGSFPLTFGGG
# notes: the VL entry stops within FR4
# Experiments:
# [1] = molecular target: T1, recombinant mouse Tie1-Fc (mouse, UniProt Q06806 23-755, limits assumed); assay: BIAcore, Fab over biotinylated mouse Tie1-Fc on streptavidin chip, 1:1 fit
# T1 construct: also called Tie-1 Fc Mouse; not shown: Fc
# T1 sequence (looked up): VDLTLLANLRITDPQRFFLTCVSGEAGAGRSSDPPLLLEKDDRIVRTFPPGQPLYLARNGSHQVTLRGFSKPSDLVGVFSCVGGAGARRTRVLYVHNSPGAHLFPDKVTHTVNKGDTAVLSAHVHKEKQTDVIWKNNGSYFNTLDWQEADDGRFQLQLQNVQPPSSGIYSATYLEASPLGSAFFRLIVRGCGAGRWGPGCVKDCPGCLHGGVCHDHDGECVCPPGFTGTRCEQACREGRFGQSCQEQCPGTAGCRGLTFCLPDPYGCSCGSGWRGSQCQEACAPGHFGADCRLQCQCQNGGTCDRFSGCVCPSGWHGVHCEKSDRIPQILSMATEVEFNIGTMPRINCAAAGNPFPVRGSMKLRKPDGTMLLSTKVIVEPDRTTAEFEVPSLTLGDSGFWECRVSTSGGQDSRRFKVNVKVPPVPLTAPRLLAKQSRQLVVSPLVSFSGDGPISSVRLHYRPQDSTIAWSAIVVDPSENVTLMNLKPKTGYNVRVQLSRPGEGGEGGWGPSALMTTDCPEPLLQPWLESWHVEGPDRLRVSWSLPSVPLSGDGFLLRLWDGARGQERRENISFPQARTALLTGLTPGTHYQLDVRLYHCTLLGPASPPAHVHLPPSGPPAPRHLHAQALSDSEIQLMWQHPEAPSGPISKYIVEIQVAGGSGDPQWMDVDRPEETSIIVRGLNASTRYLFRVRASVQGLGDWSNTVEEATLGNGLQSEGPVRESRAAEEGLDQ
# Method: Mouse Tie 1-Fc antigen (0.5 mg/ml stock) was biotinylated using established procedures and after dilution 1/100 fold in HBS this was then used for capturing to a streptavidin chip. This was coated to a resonance value of 740RU. All analysis was performed in HBS buffer. […] Serial dilutions were made of each Fab preparation to obtain 10 nM, 5 nM, 2.5 nM, and 1.25 nM. For the association phase samples were injected at 30 μl/min for 4 minutes using kinject program. This was followed by a 10 minutes dissociation phase, any remaining sample was stripped from the Tie-1 Fc surface at a flow of 50 μl/min with a single injection of 50 mM NaOH+1 M NaCl for 18 seconds. All samples were run and analyzed in duplicate.
# (§1) Sensorgrams were analyzed using the simultaneous ka/kd fitting program with 1:1 model in the BIAEVALUATION™ software 3.1.
# [2] = molecular target: T2, recombinant human Tie1-Fc (Tie1 extracellular domain fused to human Fc) (human, UniProt P35590 25-759); assay: BIAcore, Fab over biotinylated human Tie1-Fc on streptavidin chip, 1:1 fit
# T2 construct: also called Tie-1 Fc Human; not shown: human Fc
# T2 sequence: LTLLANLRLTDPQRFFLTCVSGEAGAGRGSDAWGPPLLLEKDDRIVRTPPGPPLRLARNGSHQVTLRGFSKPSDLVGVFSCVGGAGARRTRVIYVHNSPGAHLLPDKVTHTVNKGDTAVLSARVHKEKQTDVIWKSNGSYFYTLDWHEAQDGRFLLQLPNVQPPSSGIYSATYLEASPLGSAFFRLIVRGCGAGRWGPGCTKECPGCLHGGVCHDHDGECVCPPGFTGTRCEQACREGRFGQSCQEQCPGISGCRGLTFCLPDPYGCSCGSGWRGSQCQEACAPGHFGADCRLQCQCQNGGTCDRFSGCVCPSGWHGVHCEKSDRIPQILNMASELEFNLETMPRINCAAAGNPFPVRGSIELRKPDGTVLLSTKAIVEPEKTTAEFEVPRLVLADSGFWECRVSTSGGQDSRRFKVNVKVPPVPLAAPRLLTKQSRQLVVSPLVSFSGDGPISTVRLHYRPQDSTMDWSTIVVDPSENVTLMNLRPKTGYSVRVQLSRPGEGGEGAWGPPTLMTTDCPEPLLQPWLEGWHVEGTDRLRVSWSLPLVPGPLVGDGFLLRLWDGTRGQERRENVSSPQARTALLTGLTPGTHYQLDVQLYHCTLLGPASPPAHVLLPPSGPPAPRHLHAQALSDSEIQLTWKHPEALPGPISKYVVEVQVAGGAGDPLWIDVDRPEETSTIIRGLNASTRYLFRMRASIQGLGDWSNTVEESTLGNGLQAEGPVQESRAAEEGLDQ
# Method: Recombinant purified human Tie1-Fc antigen (Stock 2.45 mg/ml) was biotinylated using the EZ-link Sulfo-NHS-SS-Biotin (Pierce, Cat. 21331). The reaction was performed for 2 hours on ice in 50 mM sodium carbonate buffer, pH 9.6, in the presence of a 5-fold molar excess of biotinylating agent and was stopped by the addition of Tris-HCl, pH 7.5 (50 mM final concentration) followed by a 1-hour incubation on ice. Samples were then dialyzed against PBS. The antigen was then diluted 1/100 fold in HBS and was then captured onto a streptavidin chip. This was coated to a density of 830RU (resonance units). All analysis was performed in HBS buffer. […] Serial dilutions were made of each Fab preparation to obtain 10 nM, 5 nM, 2.5 nM, and 1.25 nM solutions. For the association phase samples were injected at 30 μl/min for 4 minutes using kinject program. This was followed by a 10 minutes dissociation phase, any remaining sample was stripped from the Tie-1 Fc surface at a flow of 50 μl/min with a single injection of 5 mM NaOH+1M NaCl for 18 seconds. All samples were run and analyzed in duplicate.
# as §1
# [3] = molecular target: T2, recombinant human Tie1-Fc (Tie1 …); assay: BIAcore, Fab over human Tie-1/Fc coupled to CM5 chip, 1:1 fit
# Method: Recombinant human Tie-1/Fc was coated on a CM5 chip. The surface of the chip was first activated with a 7-minute pulse of 0.05 M NHS/0.2 M EDC, then Tie-1/Fc (2 μg/ml in 10 mM sodium acetate, pH 4.0) was run over the chip surface until 750 RUs were coated on the surface. All flow cells were subsequently deactivated with a 7-minute pulse of 1 M ethanolamine hydrochloride, pH 8.5. All further experiments were performed in HBS buffer.
# A series of dilution (50, 25, 12.5, 6.25 and 3.125 nM) was prepared in HBS buffer. Samples were injected at 30 μl/min for 5.3 minutes using the KINJECT™ program. This was followed by a 10-minute dissociation phase, and the remaining Fab was stripped from the surface with a single 18-sec injection of 50 mM NaOH/1 M NaCl.
# Sensorgrams were analyzed using the simultaneous ka/kd fitting program from the BIAEVALUATION™ software 3.1 assuming a 1:1 model.
# [4] = molecular target: T3, endogenous human Tie1 of primary human endothelial cells (HDMEC/HDMVEC, HUVEC) and human tissues (human, UniProt P35590 25-1138); assay: Western blot, HDMEC
# T3 construct: also called endogenous Tie1; Tie-1 in HUVEC
# Method: (§2) COS1 cells were transfected with pcDNA3-Tie1-V5 (1 μg DNA per 10 cm cell culture plate) using FUGENE 6 (Roche) according to manufacturer's instruction and incubated for 48 h before stimulation. For immunoprecipitation, Tie1 transfected cells and HMVEC cells were lysed in DOC-RIPA lysis buffer (50 mM Tris-HCl pH 8.0, 150 mM NaCl, 1% Triton-X-100, 0.1% SDS, 1% DOC, 10 mM EDTA) supplemented with aprotinin, leupeptin, PMSF and sodium vanadate. Immunoprecipitation was carried out from equal amount of cell lysates by incubating with polyclonal anti-human Tie1 antibodies (R&D), monoclonal anti-V5 antibodies (Invitrogen) or altogether 23 anti-Tie1 antibodies (1μg/ml) for 1 to 2 h followed by incubation with protein G-Sepharose (Amersham Pharmacia Biotech AB) for 1 h. The immunoprecipitates were washed twice with PBS-T and twice with PBS, followed by elution with the Laemmli buffer and separation in 8% SDS-PAGE. The blots were probed with the 23 anti-Tie1 antibodies (5 μg/ml) and subsequently anti-human Fc antibodies conjugated with HRP.
# (§3) Next, to find out if the anti-Tie1 antibodies recognize Tie1 in living cells, those cells were studied by immunofluorescence staining.
# [5] = molecular target: T4, human Tie1, full length, V5-tagged (pcDNA3-Tie1-V5), in transiently transfected COS1 cells (human, UniProt P35590 25-1138); assay: Western blot, Tie1-V5-transfected COS1
# T4 construct: it is not expressly tied to the pcDNA3-Tie1-V5 construct; also called Tie1-transfected; transfected Tie1
# Method: as §2, §3
binder,measurement,setting,value
B1,Kd,[1],3.1 nM
same,koff,[1],0.00104 s⁻¹
same,kon,[1],340000 M⁻¹ s⁻¹
same,Kd,[2],3.4 nM
same,koff,[2],0.00102 s⁻¹
same,kon,[2],300000 M⁻¹ s⁻¹
B2,Kd,[3],7 nM
same,koff,[3],0.00101 s⁻¹
same,kon,[3],136000 M⁻¹ s⁻¹
B3,Kd,[1],3.9 nM
same,koff,[1],0.00095 s⁻¹
same,kon,[1],246000 M⁻¹ s⁻¹
same,Kd,[3],12 nM
same,koff,[3],0.00105 s⁻¹
same,kon,[3],88100 M⁻¹ s⁻¹
same,Kd,[2],2 nM
same,koff,[2],0.00061 s⁻¹
same,kon,[2],300000 M⁻¹ s⁻¹
B4,binding result,[4],binds
same,binding result,[5],binds
B5,binding result,[4],binds
same,binding result,[5],binds
B6,binding result,[4],binds
same,binding result,[5],binds
B7,binding result,[4],binds
same,binding result,[5],binds
